Consider four molecules from patent US20210269549A1, “ANTI-SAS1B ANTIBODIES, ASSOCIATED METHODS OF USE, AND COMPOSITIONS AND METHODS FOR DETECTING AND TREATING CANCER” (UNIVERSITY OF VIRGINIA PATENT FOUNDATION, priority 2015, published 2021).

Experiment [1] has as its target T1, human SAS1B (Homo sapiens, UniProt Q6HA08).
T1 construct: made in house; host or cells: E. coli
T1 sequence (Q6HA08 24-431): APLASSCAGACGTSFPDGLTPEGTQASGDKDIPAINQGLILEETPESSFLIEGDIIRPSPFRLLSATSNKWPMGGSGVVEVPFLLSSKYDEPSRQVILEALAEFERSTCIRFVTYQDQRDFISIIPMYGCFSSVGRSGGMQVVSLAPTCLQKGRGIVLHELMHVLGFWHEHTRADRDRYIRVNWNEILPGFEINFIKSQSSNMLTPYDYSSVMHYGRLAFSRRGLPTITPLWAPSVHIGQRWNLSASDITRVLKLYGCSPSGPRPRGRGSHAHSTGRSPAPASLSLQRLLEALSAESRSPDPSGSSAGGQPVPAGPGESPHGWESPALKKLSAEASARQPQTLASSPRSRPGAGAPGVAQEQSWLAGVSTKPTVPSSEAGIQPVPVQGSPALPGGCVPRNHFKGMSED
Put plainly: Western blot of human SAS1B probed with anti-human SAS1B murine mAbs. The experiment is classed as binding. To be noted: for Specifically binds human SAS1B (and not mouse SAS1B): Table 1. The source says: A western blot of human SAS1B and mouse SAS1B was probed with anti-human SAS1B murine monoclonal antibodies SB1, SB2, SB3, SB4, SB5, SB6, and SB7.

Experiment [2] addresses T2, full-length SAS1B splice variant A polypeptide (Homo sapiens, UniProt Q6HA08).
T2 construct: made in house
T2 sequence (Q6HA08 24-431): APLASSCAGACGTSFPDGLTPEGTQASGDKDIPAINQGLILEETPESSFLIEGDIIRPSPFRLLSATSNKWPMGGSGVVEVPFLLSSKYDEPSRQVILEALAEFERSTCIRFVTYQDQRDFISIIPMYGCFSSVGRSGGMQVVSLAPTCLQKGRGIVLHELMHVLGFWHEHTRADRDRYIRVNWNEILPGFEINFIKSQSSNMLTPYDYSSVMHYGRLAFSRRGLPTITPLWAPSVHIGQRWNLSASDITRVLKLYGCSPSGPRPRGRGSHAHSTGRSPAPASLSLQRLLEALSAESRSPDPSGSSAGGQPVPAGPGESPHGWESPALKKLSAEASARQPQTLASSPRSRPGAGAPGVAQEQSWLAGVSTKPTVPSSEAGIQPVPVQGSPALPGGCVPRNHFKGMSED
The experiment in a line: Western blot with mammalian cell-expressed recombinant SAS1B, full length. The experiment is classed as binding. On the procedure: SAS1B monoclonal antibodies were analyzed with mammalian cell-expressed recombinant SAS1B by western blotting.
In general terms: In western blotting, separated proteins are transferred to a membrane and probed.

Experiment [3] has as its system MMMT539 (uterine cancer cell line). Put plainly: Live cell surface indirect immunofluorescence, MMMT539. To be noted: live cells on ice. The experiment is classed as cell-based, human. On the procedure:
Anti-Human SAS1B mouse monoclonal antibodies reactive to SAS1B epitope on live cancer cell surfaces were identified by indirect immuno-fluorescence (IF) for the development of therapeutic antibodies. M1 (renal cancer cell line) and MMMT539 (uterine cancer cell line) cells were seeded at 20,000 cells in 1 ml per well on collagen coated coverslips in 24 well plates. The media was replaced 22 h post seeding. For antibody probing, cells were kept on ice for ˜8 to 18 min following 47 h post-seeding. The first antibody was added at 10 ug/ml, 20 ug/ml or 50 ug/ml in complete culture media with 15 mM NaN3 (pre-chilled), incubated on ice for 60 min, and the cells washed in complete culture media with 15 mM NaN3 in cold 1 ml, ×3. The second antibody, goat-antimouse-AF488 (pre-chilled), was added to the wells at 5 ug/ml in complete culture media with 15 mM NaN3 for 60 min on ice. The cells were washed in complete media with 15 mM NaN3, 1 ml, ×3 on ice. The cells were fixed in 4% PFA in PBS for 20 minutes on ice. The cells were washed in distilled water at RT, 1 ml, ×1 and mounted in 8 ul of SLOWFADE® Diamond Antifade Mountant with DAPI. An anti-EGFR monoclonal antibody was used as a positive control on live M1 cells. Epidermal growth factor receptor (EGFR) is a transmembrane glycoprotein and member of protein kinase superfamily. […] Most of the cells expressed the receptor and validated the live cell surface IF staining methodology for the screening of anti-human SAS1B mouse monoclonal antibodies. The receptor molecule was found on the cell surfaces. Anti-human CABYR monoclonal antibody 3A4 was used as a negative control on live MMMT539 cells. CABYR is a calcium binding cytoskeleton sperm protein with no transmembrane domain.

The target in experiment [4] is T1, human SAS1B. The experiment in a line: Immunoprecipitation of SAS1B from HEK293T cells transfected with SAS1B. The experiment is classed as binding. To be noted: for Pull down (immunoprecipitation) of SAS1B: HEK293T extract, western blot detection with anti-His mAb. On the procedure:
HEK293T cells were transfected with human SAS1B full length cDNA for 66 h. Immuno-precipitation of SAS1B was completed with SB1, SB2, SB4 and SB5 monoclonal antibodies. Following SAS1B immunoprecipitation, detection was completed with mouse anti-His tag mAb at C-terminus. Immunoprecipitated samples were analyzed by protein staining with Coomassie staining. Immunoprecipitated sample was also analyzed by MS/MS analysis. VH and VL chain CDR1-3 regions were sequenced for the confirmed anti-SAS1B mAbs. Immunoprecipitation was performed with N-terminal mAbs from transfected cells extracted with RIPA/protease inhibitor. Detection of the SAS1B immunoprecipitation product was completed with HRP peroxidase conjugated mouse anti-His mAb at 1:3000 or 1:5000 dilution. HEK293T cells were seeded at 250,000. The cells were transfected with […] of SAS1B-SVA plasmid into each of the two T-75 flasks (at ˜90% confluency) for ˜66 h at 37 C and 5% CO2. Following transfection, two saline washes were completed with 1×HBSS. Lysed cells were incubated with RIPA+protease inhibitor for one hour on ice with mixing to ensure homogenous lysate and supernatant used for IP (RIPA: 25 mM Tris-HCl (pH 7.6), 150 mM NaCl, 1% NP-40, 1% sodium deoxycholate, 0.1% SDS). For the immunoprecipitation, 3 mg magnetic bead coupled protein G were suspended and incubated with […] of each SAS1B monoclonal antibody for 10 minutes. The magnetic bead/antibody complex was washed with PBST once, followed by incubation with […] antigen extract for 20 min. The post-immunoprecipitation sample was saved for comparison. Three 200 mL washes with washing buffer+protease inhibitor were completed. The fourth wash used only 100 mL of wash buffer+protease inhibitor. The magnetic beads were transferred to a new micro-centrifuge tube. 1× Lamelli buffer was added to bead/antibody/antigen complex for subsequent analysis. The sample was boiled at 98° C. for 10 min in 1× Lamelli buffer and the supernatant transferred to a new tube. The immunoprecipitation sample was analyzed by western blot and Coomassie blue staining. The SDS-PAGE samples (pre-IP, IP, and post IP extracts) were resolved with 12% TGX Criterion gels at 30 milliamps for 1 hr. Coomassie stain was added to determine the profile of IP samples. Following SDS-PAGE resolution, bands were transferred to nitrocellulose membrane at 1 Amp for 1 h at 5° C. The membrane was blocked with 5% dry milk/PBST, and incubated with mouse anti-His monoclonal antibody conjugated with HRP for 1 hr at RT at 1:3000 or 1:5000 dilution. The membranes were imaged with TMB solution.
A unique ˜52 kD band was recovered in SB5 IP. SB5 (IgG2b) has a different isotype than SB1 (IgG2a), and 3A7 (IgG1). The ˜52 kD band from the SB5 immunoprecipitation was isolated, restained with Coomassie blue and submitted for MS/MS to verify protein identity. The MS/MS nanospray ion source was operated at 2.5 kV. The digest was analyzed using the rapid switching capability of the instrument acquiring a full screen mass spectrum to determine peptide molecular weights followed by product ion spectra to determine amino acid sequence in sequential scans. This mode of analysis produces about 20,000 MS/MS spectra of ions ranging in abundance over several orders of magnitude. Not all MS/MS spectra are derived from peptides. The data were analyzed using the Sequest search algorithm against Uniprot Human and SwissProt.

“Also recorded” adds a separate entry of the source.

B1: SB2: mouse anti-human SAS1B monoclonal antibody, IgG2b; VH SEQ ID NO:14, VL SEQ ID NO:15 (antibody, listed as Mus musculus, V domains shown)
VH: EVQLQQSGPELVKPGSSVKISCKASGYTFTDYNMVWVKQSHGKSLEWIGAVNPNNGGTSYNQKFKGKATLTVDKSSSTAYMELRSLTSEDSAVYYCVPNWDWFAYWGQGTLVTVSA
VL: DVLMTQTPLSLPVSLGDQASISCRSSQSLVHSNGNTYLEWYLQKPGQSPNLLIYKVSNRFSGVPDRFSGSGSGTDFTLKISRVEAEDLGVYYCFQGSHVPFTFGSGTKLEIK
Consider B1, for which, in the experiment with human SAS1B [1], the “Reactivity on western blot of human SAS1B and mouse SAS1B” value (from here on “Reactivity on western blot”) is given as “specific to the human SAS1B only”; the “Specificity in western blot for human SAS1B antigen in an E. coli protein background” value (“Specificity in western blot” for short) is recorded as “demonstrated specificity”; the “Specifically binds human SAS1B (and not mouse SAS1B)” value is “Yes”. Besides, the “Reaction with full-length SAS1B splice variant A polypeptide” value (“Reaction” below) in experiment [2] is “reacted with the full-length SAS1B splice variant A polypeptide”. The “Fluorescence signal on the surface of live uterine tumor cells” value (shortened to “Fluorescence signal on the surface”) in experiment [3] was “clear fluorescence signal”. In the experiment with human SAS1B [4], the “Pull down (immunoprecipitation) of SAS1B” value is given as “pulled down recombinant SAS1B”.

B2: SB5: mouse anti-human SAS1B monoclonal antibody, IgG2b; VH SEQ ID NO:16, VL SEQ ID NO:18 (antibody, listed as Mus musculus, V domains shown)
VH: EVQLQQSGPELVKPGSSVKISCKPSGYTFTDYNMVWMKQSHGKSLEWIGAINPNNGGTTYNQKFKGKATLTVDKSSSTAYMELRSLTSEDSAVYYCAPNWDWFAYWGQGTLVTVSA
VL: DVLMTQIPLSLPVSLGDQASISCRSSQSILHSNGNTYLEWYLQKPGQSPKLLIYKVSNRFSGVPDRFSGSGSGTDFTLKISRVEAEDLGVYYCFQGSHVPFTFGSGTKLEIK
For the molecule B2, in the experiment with human SAS1B [1], the “Reactivity on western blot” value is given as “specific to the human SAS1B only”; the “Specificity in western blot” value was “demonstrated specificity”; the “Specifically binds human SAS1B (and not mouse SAS1B)” value is “Yes”. In addition, the “Reaction” value in experiment [2] is recorded as “reacted with the full-length SAS1B splice variant A polypeptide”. Besides, in experiment [3], the “Fluorescence signal on the surface” value is “clear fluorescence signal”. In the experiment with human SAS1B [4], the “Depletion of SAS1B in post IP sample compared to starting material” value is “relative depletion of antigen in post IP samples”, the “MS/MS analysis of the IP sample (~52 kD band)” value is reported as “confirmed the specificity of the mAb for Human SAS1B protein” and the “Pull down (immunoprecipitation) of SAS1B” value was “pulled down; also recorded: immunoprecipitate “native” SAS1B”.

B3: SB3: mouse anti-human SAS1B monoclonal antibody, IgG2b; VH SEQ ID NO:14, VL SEQ ID NO:15 (antibody, listed as Mus musculus, V domains shown)
VH: EVQLQQSGPELVKPGSSVKISCKASGYTFTDYNMVWVKQSHGKSLEWIGAVNPNNGGTSYNQKFKGKATLTVDKSSSTAYMELRSLTSEDSAVYYCVPNWDWFAYWGQGTLVTVSA
VL: DVLMTQTPLSLPVSLGDQASISCRSSQSLVHSNGNTYLEWYLQKPGQSPNLLIYKVSNRFSGVPDRFSGSGSGTDFTLKISRVEAEDLGVYYCFQGSHVPFTFGSGTKLEIK
With B3, in the experiment with human SAS1B [1], the “Reactivity on western blot” value is “specific to the human SAS1B only”; the “Specificity in western blot” value is listed as “demonstrated specificity”; the “Specifically binds human SAS1B (and not mouse SAS1B)” value is “Yes”. The “Reaction” value in experiment [2] is reported as “reacted with the full-length SAS1B splice variant A polypeptide”. Also, the “Fluorescence signal on the surface” value in experiment [3] was “clear fluorescence signal”. In addition, the “Pull down (immunoprecipitation) of SAS1B” value in the experiment with human SAS1B [4] is “immunoprecipitate “native” SAS1B”.

B4: SB4: mouse anti-human SAS1B monoclonal antibody, IgG2a; VH SEQ ID NO:16, VL SEQ ID NO:17 (antibody, listed as Mus musculus, V domains shown)
VH: EVQLQQSGPELVKPGSSVKISCKPSGYTFTDYNMVWMKQSHGKSLEWIGAINPNNGGTTYNQKFKGKATLTVDKSSSTAYMELRSLTSEDSAVYYCAPNWDWFAYWGQGTLVTVSA
VL: DVLMTQTPLSLPVSLGDQASISCRSSQSILHSNGNTYLEWYLQKPGQSPKLLIYKVSNRFSGVPDRFSGSGSGTDFTLKISRVEAEDLGVYYCFQGSHVPFTFGSGTKLEIK
B4: in the experiment with human SAS1B [1], the “Reactivity on western blot” value was “specific to the human SAS1B only”; the “Specificity in western blot” value is “demonstrated specificity”; the “Specifically binds human SAS1B (and not mouse SAS1B)” value is “Yes”. Also, the “Reaction” value in experiment [2] is given as “reacted with the full-length SAS1B splice variant A polypeptide”. Besides, the “Fluorescence signal on the surface” value in experiment [3] is reported as “clear fluorescence signal”. Also, in the experiment with human SAS1B [4], the “Depletion of SAS1B in post IP sample compared to starting material” value is reported as “clear relative reduction of SAS1B” and the “Pull down (immunoprecipitation) of SAS1B” value is reported as “pulled down recombinant SAS1B; also recorded: immunoprecipitate “native” SAS1B”.
